Tests used:
[1] = molecular target: T1, mouse NaPi2b (mouse, UniProt Q9DBP0 1-697); experiment: flow cytometry on HEK293-6e cells transfected with mouse NaPi2b, 24 h at 4 C, anti-human IgG Fc AF647
T1 construct: also called Ms NaPi2b; CL #13476
T1 sequence: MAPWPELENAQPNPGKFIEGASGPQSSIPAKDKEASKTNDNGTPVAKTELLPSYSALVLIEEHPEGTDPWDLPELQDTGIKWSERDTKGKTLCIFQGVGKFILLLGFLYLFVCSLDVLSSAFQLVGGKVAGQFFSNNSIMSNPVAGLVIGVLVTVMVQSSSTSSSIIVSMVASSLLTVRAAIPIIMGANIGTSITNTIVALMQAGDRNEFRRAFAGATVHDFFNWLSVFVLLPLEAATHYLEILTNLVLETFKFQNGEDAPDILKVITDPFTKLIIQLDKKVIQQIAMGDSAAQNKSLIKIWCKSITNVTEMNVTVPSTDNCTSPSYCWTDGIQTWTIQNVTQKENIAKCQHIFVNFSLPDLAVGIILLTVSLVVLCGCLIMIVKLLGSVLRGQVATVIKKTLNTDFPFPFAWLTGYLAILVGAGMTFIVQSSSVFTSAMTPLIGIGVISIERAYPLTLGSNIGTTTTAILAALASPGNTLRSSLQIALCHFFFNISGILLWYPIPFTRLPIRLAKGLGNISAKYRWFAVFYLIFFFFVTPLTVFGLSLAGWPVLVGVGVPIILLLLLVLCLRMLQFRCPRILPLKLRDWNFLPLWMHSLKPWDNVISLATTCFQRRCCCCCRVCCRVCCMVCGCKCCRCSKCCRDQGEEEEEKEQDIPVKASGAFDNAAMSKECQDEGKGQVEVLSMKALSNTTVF

[2] = molecular target: T2, Construct 5 (chimeric human NaPi2b, swap in NaPi2a in 304-348) (human); experiment: flow cytometry, transfected HEK293-6e cells, antibody 200 nM;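 note: cells incubated with antibody for 24 h at 4 °C, background taken as average MFI of unstained cells without primary antibody, at least 1,000 events per well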
T2 construct: also called CL_#13436

[3] = molecular target: T3, Construct 6 (human NaPi2b del 317-333) (human, UniProt O95436 1-690); experiment: as above
T3 construct: also called CL_#29919
T3 sequence: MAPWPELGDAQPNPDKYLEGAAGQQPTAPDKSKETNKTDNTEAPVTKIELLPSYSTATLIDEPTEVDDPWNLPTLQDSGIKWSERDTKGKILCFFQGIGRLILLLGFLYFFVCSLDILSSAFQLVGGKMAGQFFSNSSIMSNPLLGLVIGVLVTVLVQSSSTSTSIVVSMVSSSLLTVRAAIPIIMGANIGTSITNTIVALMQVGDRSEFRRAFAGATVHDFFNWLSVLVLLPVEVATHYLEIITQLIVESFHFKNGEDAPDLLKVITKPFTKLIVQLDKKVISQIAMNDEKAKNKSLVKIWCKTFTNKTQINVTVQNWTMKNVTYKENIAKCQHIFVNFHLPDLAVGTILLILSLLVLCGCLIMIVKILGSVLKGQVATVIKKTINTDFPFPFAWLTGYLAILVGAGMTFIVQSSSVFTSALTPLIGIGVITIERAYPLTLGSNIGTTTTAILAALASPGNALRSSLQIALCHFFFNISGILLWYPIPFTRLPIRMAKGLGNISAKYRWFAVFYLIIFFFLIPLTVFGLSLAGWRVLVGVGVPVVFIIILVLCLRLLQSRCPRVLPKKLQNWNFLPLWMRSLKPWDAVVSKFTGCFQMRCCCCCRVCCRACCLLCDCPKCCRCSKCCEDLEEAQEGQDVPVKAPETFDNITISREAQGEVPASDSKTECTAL

[4] = molecular target: T4, Full length human NaPi2b (sodium-dependent phosphate transporter 2B, SLC34A2) (human, UniProt O95436 1-690); experiment: as above
T4 construct: also called huNaPi2b; CL_#13432
T4 sequence: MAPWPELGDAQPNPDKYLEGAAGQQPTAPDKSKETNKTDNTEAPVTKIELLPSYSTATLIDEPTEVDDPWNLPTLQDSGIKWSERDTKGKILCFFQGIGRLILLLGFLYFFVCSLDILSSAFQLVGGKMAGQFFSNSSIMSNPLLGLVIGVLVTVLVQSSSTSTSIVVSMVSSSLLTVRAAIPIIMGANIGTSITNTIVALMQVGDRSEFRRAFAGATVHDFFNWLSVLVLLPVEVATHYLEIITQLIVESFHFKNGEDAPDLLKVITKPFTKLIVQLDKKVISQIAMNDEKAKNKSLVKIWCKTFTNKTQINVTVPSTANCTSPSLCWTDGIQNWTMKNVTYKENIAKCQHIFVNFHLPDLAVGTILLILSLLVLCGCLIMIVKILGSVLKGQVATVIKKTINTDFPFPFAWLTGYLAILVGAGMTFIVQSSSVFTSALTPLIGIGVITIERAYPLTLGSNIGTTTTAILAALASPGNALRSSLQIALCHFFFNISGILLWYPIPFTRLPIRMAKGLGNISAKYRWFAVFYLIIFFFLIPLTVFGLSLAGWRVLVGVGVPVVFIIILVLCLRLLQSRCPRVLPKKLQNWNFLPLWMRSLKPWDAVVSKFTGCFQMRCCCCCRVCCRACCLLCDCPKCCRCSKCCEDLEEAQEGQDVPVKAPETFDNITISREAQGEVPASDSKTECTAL

[5] = molecular target: T5, Construct 2 (chimeric human NaPi2b, swap in NaPi2c in 280-301) (human); experiment: as above
T5 construct: also called CL_#29915

[6] = molecular target: T6, Construct 3 (chimeric human NaPi2b, swap in NaPi2c in 304-321) (human); experiment: as above
T6 construct: also called CL_#29916

[7] = molecular target: T7, Construct 4 (chimeric human NaPi2b, swap in NaPi2c in 341-358) (human); experiment: as above
T7 construct: also called CL_#13435

Binder	binding result [1]	Background-Subtracted AF647 Mean Fluorescence Intensity [2] [MFI]	Background-Subtracted AF647 Mean Fluorescence Intensity [3] [MFI]	Background-Subtracted AF647 Mean Fluorescence Intensity [4] [MFI]	Background-Subtracted AF647 Mean Fluorescence Intensity [5] [MFI]	Background-Subtracted AF647 Mean Fluorescence Intensity [6] [MFI]	Background-Subtracted AF647 Mean Fluorescence Intensity [7] [MFI]	EC50 (read off the curve) [1] [nM]
v22277 (palivizumab, anti-RSV negative control, heterodimeric Fc) (antibody, human IgG1, kappa, also called neg control) heavy 1: GQVTLRESGPALVKPTQTLTLTCTFSGFSLSTSGMSVGWIRQPPGKALEWLADIWWDDKKDYNPSLKSRLTISKDTSKNQVVLKVTNMDPADTATYYCARSMITNWYFDVWGAGTTVTVSSASTKGPSVFPLAPSSKSTSGGTAALGCLVKDYFPEPVTVSWNSGALTSGVHTFPAVLQSSGLYSLSSVVTVPSSSLGTQTYICNVNHKPSNTKVDKKVEPKSCDKTHTCPPCPAPELLGGPSVFLFPPKPKDTLMISRTPEVTCVVVDVSHEDPEVKFNWYVDGVEVHNAKTKPREEQYNSTYRVVSVLTVLHQDWLNGKEYKCKVSNKALPAPIEKTISKAKGQPREPQVYVYPPSRDELTKNQVSLTCLVKGFYPSDIAVEWESNGQPENNYKTTPPVLDSDGSFALVSKLTVDKSRWQQGNVFSCSVMHEALHNHYTQKSLSLSPG heavy 2: not shown light: GDIQMTQSPSTLSASVGDRVTITCKSQLSVGYMHWYQQKPGKAPKLLIYDTSKLASGVPSRFSGSGSGTEFTLTISSLQPDDFATYYCFQGSGYPFTFGGGTKLEIKRTVAAPSVFIFPPSDEQLKSGTASVVCLLNNFYPREAKVQWKVDNALQSGNSQESVTEQDSKDSTYSLSSTLTLSKADYEKHKVYACEVTHQGLSSPVTKSFNRGEC	no binding (tested: 200 nM)							
MX35 (v18992), reference anti-NaPi2b antibody (antibody, human IgG1, kappa) heavy 1: GQVQLVQSGAEVVKPGASVKMSCKASGYTFTGYNIHWVKQAPGQGLEWIGAIYPGNGDTSYKQKFRGRATLTADTSTSTVYMELSSLRSEDSAVYYCARGETARATFAYWGQGTLVTVSSASTKGPSVFPLAPSSKSTSGGTAALGCLVKDYFPEPVTVSWNSGALTSGVHTFPAVLQSSGLYSLSSVVTVPSSSLGTQTYICNVNHKPSNTKVDKKVEPKSCDKTHTCPPCPAPELLGGPSVFLFPPKPKDTLMISRTPEVTCVVVDVSHEDPEVKFNWYVDGVEVHNAKTKPREEQYNSTYRVVSVLTVLHQDWLNGKEYKCKVSNKALPAPIEKTISKAKGQPREPQVYVYPPSRDELTKNQVSLTCLVKGFYPSDIAVEWESNGQPENNYKTTPPVLDSDGSFALVSKLTVDKSRWQQGNVFSCSVMHEALHNHYTQKSLSLSPG heavy 2: not shown light: GDIQMTQSPSSLSASVGDRVTITCSASQDIGNFLNWYQQKPGKTVKVLIYYTSSLYSGVPSRFSGSGSGTDYTLTISSLQPEDFATYYCQQYSKLPLTFGQGTKLELKRTVAAPSVFIFPPSDEQLKSGTASVVCLLNNFYPREAKVQWKVDNALQSGNSQESVTEQDSKDSTYSLSSTLTLSKADYEKHKVYACEVTHQGLSSPVTKSFNRGEC		219	-2	979	1360	802	764	
v38591 (humanized anti-NaPi2b antibody, wild-type Fc) (antibody, human IgG1, kappa, also called v38591 Wild-type; H1L2) heavy: not shown light: DVQMTQSPSSLSASVGDRVTITCRASQDVYSYLNWYQQKPGKAVKLLIYYTSRLQSGVPSRFSGSGSGTDYTLTISSLQPEDFATYYCQQYNIFPWTFGQGTKLEIKRTVAAPSVFIFPPSDEQLKSGTASVVCLLNNFYPREAKVQWKVDNALQSGNSQESVTEQDSKDSTYSLSSTLTLSKADYEKHKVYACEVTHQGLSSPVTKSFNRGEC								~0.3
v38591 (humanized anti-NaPi2b antibody, H1L2, wild-type Fc, heavy chains with C-terminal lysine) (antibody, human IgG1, kappa, Full-size human IgG1/kappa antibody; also called v38591 (wild-type Fc)) heavy: not shown light: DVQMTQSPSSLSASVGDRVTITCRASQDVYSYLNWYQQKPGKAVKLLIYYTSRLQSGVPSRFSGSGSGTDYTLTISSLQPEDFATYYCQQYNIFPWTFGQGTKLEIKRTVAAPSVFIFPPSDEQLKSGTASVVCLLNNFYPREAKVQWKVDNALQSGNSQESVTEQDSKDSTYSLSSTLTLSKADYEKHKVYACEVTHQGLSSPVTKSFNRGEC		204	210	989	1410	810	933	
palivizumab (v21995), anti-RSV antibody, negative control (antibody, human IgG1, kappa, V domains shown) VH: QVTLRESGPALVKPTQTLTLTCTFSGFSLSTSGMSVGWIRQPPGKALEWLADIWWDDKKDYNPSLKSRLTISKDTSKNQVVLKVTNMDPADTATYYCARSMITNWYFDVWGAGTTVTVSS VL: DIQMTQSPSTLSASVGDRVTITCKSQLSVGYMHWYQQKPGKAPKLLIYDTSKLASGVPSRFSGSGSGTEFTLTISSLQPDDFATYYCFQGSGYPFTFGGGTKLEIKR		40	2	19	-30	-5	12	
lifastuzumab (v18993), reference anti-NaPi2b antibody (antibody, human IgG1, kappa) heavy 1: GEVQLVESGGGLVQPGGSLRLSCAASGFSFSDFAMSWVRQAPGKGLEWVATIGRVAFHTYYPDSMKGRFTISRDNSKNTLYLQMNSLRAEDTAVYYCARHRGFDVGHFDFWGQGTLVTVSSASTKGPSVFPLAPSSKSTSGGTAALGCLVKDYFPEPVTVSWNSGALTSGVHTFPAVLQSSGLYSLSSVVTVPSSSLGTQTYICNVNHKPSNTKVDKKVEPKSCDKTHTCPPCPAPELLGGPSVFLFPPKPKDTLMISRTPEVTCVVVDVSHEDPEVKFNWYVDGVEVHNAKTKPREEQYNSTYRVVSVLTVLHQDWLNGKEYKCKVSNKALPAPIEKTISKAKGQPREPQVYVYPPSRDELTKNQVSLTCLVKGFYPSDIAVEWESNGQPENNYKTTPPVLDSDGSFALVSKLTVDKSRWQQGNVFSCSVMHEALHNHYTQKSLSLSPG heavy 2: not shown light: GDIQMTQSPSSLSASVGDRVTITCRSSETLVHSSGNTYLEWYQQKPGKAPKLLIYRVSNRFSGVPSRFSGSGSGTDFTLTISSLQPEDFATYYCFQGSFNPLTFGQGTKVEIKRTVAAPSVFIFPPSDEQLKSGTASVVCLLNNFYPREAKVQWKVDNALQSGNSQESVTEQDSKDSTYSLSSTLTLSKADYEKHKVYACEVTHQGLSSPVTKSFNRGEC		302	183	893	1230	943	744	
